Here are results for 5 molecules from patent publication US20200040057A1.

The target in assay [1] is HLA-B*07 (human). The experiment in a line: UV peptide exchange ELISA; ++++ = yield >75%. A general note: ELISA stands for enzyme-linked immunosorbent assay.
The target of assay [2] is HLA-B*07 (human). Nature of the assay: UV peptide exchange ELISA; +++ = yield >50.

Molecule LPRIPFSTF had a peptide exchange yield in assay [1] above 75%.
In turn, VPRPTSTVGL showed a peptide exchange yield in assay [2] of 50 to 75%.
On to FPNEVSVVL, for which the peptide exchange yield in assay [1] is above 75%.
Still for that read-out and setting: the figure for VPRPIFSQLYL is above 75%.
In assay [2], LPRGLSPARQL had a peptide exchange yield of 50 to 75%.
